± gives the standard deviation of the averaged measurements or the uncertainty stated by the source.
How the values were obtained:
[1] = duplex melting temperature (HRM, EvaGreen); higher = more stable duplex
Description: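 Listed DNA strand annealed 1:1 with its complementary strand (95 °C 5 min, 0.1 °C/s to 20 °C). Melted in 1x NNE buffer (500 mM NaCl, 10 mM Na2HPO4, 1 mM EDTA, pH 7.0) with 1x EvaGreen on a LightCycler96 (37 to 97 °C, 0.1 °C/s). Tm is the peak of -dF/dT at the stated total duplex concentration; 4 replicates are averaged. PS oligos are non-stereospecific (Rp/Sp mixtures).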

[2] = duplex formation free energy ΔG50 (Van't Hoff fit of HRM Tm); higher = less stable duplex; conditions: temperature for dG: 50 °C, NaCl: 500 mM (unadjusted)
Description: (§1)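 Duplex of the listed DNA strand with its complement, in 1x NNE buffer (500 mM NaCl, pH 7.0) with 1x EvaGreen. ΔH and ΔS come from a Van't Hoff linear fit of 1/Tm against ln(CT/4) over 1-20 uM, using HRM Tm values.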

[3] = duplex formation enthalpy ΔH (Van't Hoff fit of HRM Tm); higher = less exothermic duplex formation; conditions: temperature for dG: 50 °C, NaCl: 500 mM (unadjusted)
Description: as §1

[4] = duplex formation entropy ΔS (Van't Hoff fit of HRM Tm); higher = smaller entropy loss on duplex formation; conditions: temperature for dG: 50 °C, NaCl: 500 mM (unadjusted)
Description: as §1

[5] = duplex concentration 1 µM, backbone: PO-PO (both strands phosphodiester DNA)
[6] = duplex concentration 1 µM, backbone: PS-PS (both strands fully phosphorothioate)
[7] = duplex concentration 2.5 µM, backbone: PO-PO (both strands phosphodiester DNA)
[8] = duplex concentration 2.5 µM, backbone: PS-PO (listed strand fully phosphorothioate, complement phosphodiester)
[9] = duplex concentration 2.5 µM, backbone: PS-PS (both strands fully phosphorothioate)
[10] = duplex concentration 5 µM, backbone: PO-PO (both strands phosphodiester DNA)
[11] = duplex concentration 5 µM, backbone: PS-PO (listed strand fully phosphorothioate, complement phosphodiester)
[12] = duplex concentration 5 µM, backbone: PS-PS (both strands fully phosphorothioate)
[13] = duplex concentration 7.5 µM, backbone: PO-PO (both strands phosphodiester DNA)
[14] = duplex concentration 7.5 µM, backbone: PS-PO (listed strand fully phosphorothioate, complement phosphodiester)
[15] = duplex concentration 7.5 µM, backbone: PS-PS (both strands fully phosphorothioate)
[16] = duplex concentration 10 µM, backbone: PO-PO (both strands phosphodiester DNA)
[17] = duplex concentration 10 µM, backbone: PS-PO (listed strand fully phosphorothioate, complement phosphodiester)
[18] = duplex concentration 10 µM, backbone: PS-PS (both strands fully phosphorothioate)
[19] = duplex concentration 15 µM, backbone: PO-PO (both strands phosphodiester DNA)
[20] = duplex concentration 15 µM, backbone: PS-PO (listed strand fully phosphorothioate, complement phosphodiester)
[21] = duplex concentration 20 µM, backbone: PS-PO (listed strand fully phosphorothioate, complement phosphodiester)
[22] = backbone: PO-PO (both strands phosphodiester DNA)
[23] = backbone: PS-PO (listed strand fully phosphorothioate, complement phosphodiester)
[24] = backbone: PS-PS (both strands fully phosphorothioate)
[25] = duplex concentration 1 µM, backbone: PS-PO (listed strand fully phosphorothioate, complement phosphodiester)
[26] = duplex concentration 15 µM, backbone: PS-PS (both strands fully phosphorothioate)
[27] = duplex concentration 20 µM, backbone: PO-PO (both strands phosphodiester DNA)
[28] = duplex concentration 20 µM, backbone: PS-PS (both strands fully phosphorothioate)

Sequence	duplex melting temperature [1, 5]	duplex melting temperature [1, 6]	duplex melting temperature [1, 7]	duplex melting temperature [1, 8]	duplex melting temperature [1, 9]	duplex melting temperature [1, 10]	duplex melting temperature [1, 11]	duplex melting temperature [1, 12]	duplex melting temperature [1, 13]	duplex melting temperature [1, 14]	duplex melting temperature [1, 15]	duplex melting temperature [1, 16]	duplex melting temperature [1, 17]	duplex melting temperature [1, 18]	duplex melting temperature [1, 19]	duplex melting temperature [1, 20]	duplex melting temperature [1, 21]	duplex formation free energy ΔG50 [2, 22]	duplex formation free energy ΔG50 [2, 23]	duplex formation free energy ΔG50 [2, 24]	duplex formation enthalpy ΔH [3, 22]	duplex formation enthalpy ΔH [3, 23]	duplex formation enthalpy ΔH [3, 24]	duplex formation entropy ΔS [4, 22]	duplex formation entropy ΔS [4, 23]	duplex formation entropy ΔS [4, 24]	duplex melting temperature [1, 25]	duplex melting temperature [1, 26]	duplex melting temperature [1, 27]	duplex melting temperature [1, 28]
CGCGCGAGTATTTATAACCT	71.21 ± 0.27 °C	52.47 ± 0.24 °C	72.26 ± 0.47 °C	64.1 ± 0.75 °C	55.09 ± 0.4 °C	73.44 ± 0.43 °C	65.57 ± 0.61 °C	56.95 ± 0.38 °C	74.53 ± 0.18 °C	66.38 ± 0.52 °C	57.68 ± 0.13 °C	75.09 ± 0.087 °C	67.07 ± 0.32 °C	58.33 ± 0.069 °C	75.71 ± 0.17 °C	67.9 ± 0.21 °C	68.39 ± 0.14 °C	-18.2 ± 0.69 kcal/mol	-13.7 ± 0.2 kcal/mol	-10.5 ± 0.12 kcal/mol	-138 ± 10 kcal/mol	-107 ± 4 kcal/mol	-86 ± 6.3 kcal/mol	-372 ± 29 cal/mol/K	-290 ± 12 cal/mol/K	-234 ± 19 cal/mol/K				
CGGGATTTCTGGCATCATTGTCCT	76 ± 0.48 °C	59.9 ± 0.76 °C	77.25 ± 0.45 °C	69.22 ± 0.5 °C	61.87 ± 0.59 °C	78.194 ± 0.017 °C	70.21 ± 0.48 °C	63.36 ± 0.43 °C	79.16 ± 0.14 °C	70.82 ± 0.46 °C	64.38 ± 0.25 °C	79.99 ± 0.12 °C	71.58 ± 0.27 °C	65.03 ± 0.12 °C	80.96 ± 0.077 °C	72.42 ± 0.15 °C	72.86 ± 0.12 °C	-19 ± 0.58 kcal/mol	-17.1 ± 0.38 kcal/mol	-13 ± 0.16 kcal/mol	-126 ± 7 kcal/mol	-141 ± 6.2 kcal/mol	-108 ± 3.9 kcal/mol	-332 ± 20 cal/mol/K	-384 ± 18 cal/mol/K	-294 ± 11 cal/mol/K	67.9 ± 0.64 °C	65.67 ± 0.24 °C	81.6 ± 0.082 °C	66.1 ± 0.11 °C
AGCTGAGCCTGCCGCC		61.14 ± 0.19 °C	77.27 ± 0.16 °C	69.3 ± 0.33 °C	64.02 ± 0.13 °C	78.56 ± 0.24 °C	71.58 ± 0.18 °C	66.05 ± 0.17 °C	79.697 ± 0.042 °C	72.92 ± 0.22 °C	67.37 ± 0.12 °C	80.57 ± 0.19 °C	73.99 ± 0.21 °C	68.22 ± 0.11 °C	81.65 ± 0.17 °C	75.27 ± 0.28 °C	76.21 ± 0.3 °C	-16.8 ± 0.39 kcal/mol	-13.04 ± 0.1 kcal/mol	-12.29 ± 0.078 kcal/mol	-98.2 ± 4.6 kcal/mol	-69.1 ± 1.6 kcal/mol	-75.3 ± 1.6 kcal/mol	-252 ± 13 cal/mol/K	-174 ± 4.5 cal/mol/K	-195 ± 4.6 cal/mol/K	65.9 ± 0.78 °C	69.27 ± 0.11 °C	82.38 ± 0.13 °C	70.31 ± 0.28 °C
CGTGCAGCACTACTTG		50.09 ± 0.18 °C	67.58 ± 0.38 °C	60.02 ± 0.13 °C	53.82 ± 0.069 °C	69.83 ± 0.28 °C	62.35 ± 0.23 °C	56.17 ± 0.085 °C	71.17 ± 0.15 °C	63.49 ± 0.13 °C	57.1 ± 0.12 °C	72.2 ± 0.18 °C	64.33 ± 0.093 °C	57.92 ± 0.08 °C	73.4 ± 0.13 °C	65.6 ± 0.099 °C	66.47 ± 0.25 °C	-12.8 ± 0.17 kcal/mol	-11.31 ± 0.067 kcal/mol	-9.892 ± 0.075 kcal/mol	-71.3 ± 2.6 kcal/mol	-71.3 ± 1.7 kcal/mol	-67.6 ± 3.5 kcal/mol	-181 ± 7.5 cal/mol/K	-186 ± 5 cal/mol/K	-179 ± 11 cal/mol/K	56.81 ± 0.29 °C	59.07 ± 0.11 °C	74.39 ± 0.17 °C	59.74 ± 0.13 °C

Reference: the supplement of paper PMC9116672
